Values of other authors in patent US12129294B2, “Methods of treatment of diseases in which IL-13 activity is detrimental using anti-IL-13 antibodies” (AbbVie Inc., priority 2016, dated 2024).

Tested on: eosinophilic esophagitis (EoE)
Conditions: QAX576 study, N = 17, cited from earlier work

B1: QAX576: anti-IL-13 antibody dectrekumab (QAX-576), comparator study in Table 6 (antibody, chains of the INN, looked up, V domains shown)
VH: EVQLVESGGGVVQPGRSLRLSCAASGFTFSSYGMHWVRQAPGKGLEWVAIIWYDGSNKYYADSVKGRFTISRDNSKNTLYLQMNSLRAEDTAVYYCARLWFGDLDAFDIWGQGTMVTVSS
VL: EIVLTQSPATLSLSPGERAILSCRAGQSVSSYLVWYQQKPGQAPRLLIYDASNRATGIPARFSGSGSGTDFTLTISSLEPEDFAVYYCQQRSSWPPVYTFGQGTKLEIK
In the case of B1, the “EEOC Mean BL” value (baseline) is given as 35.4, the “EEOC Peak BL” value (baseline) is given as 88.2 and the “EEOC Mean post” value (post treatment) is given as 14.6.
